From the supplement of paper PMC10065799, “High-throughput profiling of sequence recognition by tyrosine kinases and SH2 domains using bacterial peptide display” (eLife, 2023)

Legend:
[1] = tested on: AncSZ; test: phosphorylation enrichment, bacterial display (enrichment ratio); higher = better substrate or ligand; peptides without Tyr show the background
[2] = target: EPHB1 (UniProt P54762); test: as above
[3] = target: EPHB2 (UniProt P29323); test: as above
[4] = target: FGFR1 (UniProt P11362); test: as above
[5] = target: FGFR3 (UniProt P22607); test: as above
[6] = tested on: Fer (mouse); test: as above
[7] = target: Fes (UniProt P07332); test: as above
Chain of Fes (P07332 whole entry, looked up): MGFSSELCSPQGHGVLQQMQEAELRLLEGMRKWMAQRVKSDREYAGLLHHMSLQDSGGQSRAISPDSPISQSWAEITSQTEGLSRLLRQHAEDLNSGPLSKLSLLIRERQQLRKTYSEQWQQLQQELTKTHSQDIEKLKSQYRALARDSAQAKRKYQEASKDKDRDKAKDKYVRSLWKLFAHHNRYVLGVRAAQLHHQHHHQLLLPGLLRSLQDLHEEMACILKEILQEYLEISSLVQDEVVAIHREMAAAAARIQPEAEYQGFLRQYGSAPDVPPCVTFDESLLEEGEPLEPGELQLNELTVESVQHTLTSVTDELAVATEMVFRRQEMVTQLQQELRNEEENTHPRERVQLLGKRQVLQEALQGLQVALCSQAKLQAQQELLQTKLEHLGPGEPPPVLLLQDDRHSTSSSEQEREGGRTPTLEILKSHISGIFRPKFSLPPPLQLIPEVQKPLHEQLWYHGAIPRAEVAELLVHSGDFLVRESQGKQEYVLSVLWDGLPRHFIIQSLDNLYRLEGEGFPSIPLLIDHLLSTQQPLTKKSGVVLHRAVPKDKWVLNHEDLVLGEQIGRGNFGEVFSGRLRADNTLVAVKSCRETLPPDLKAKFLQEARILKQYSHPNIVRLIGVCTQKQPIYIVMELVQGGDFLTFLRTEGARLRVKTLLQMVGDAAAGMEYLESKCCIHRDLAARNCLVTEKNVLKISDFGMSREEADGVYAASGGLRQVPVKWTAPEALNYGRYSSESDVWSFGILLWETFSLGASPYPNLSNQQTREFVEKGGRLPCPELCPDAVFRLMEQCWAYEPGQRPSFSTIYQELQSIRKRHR

[8] = target: Fyn (UniProt P06241); test: as above
[9] = target: Hck (UniProt P08631); test: as above
Chain of Hck (P08631 whole entry, looked up): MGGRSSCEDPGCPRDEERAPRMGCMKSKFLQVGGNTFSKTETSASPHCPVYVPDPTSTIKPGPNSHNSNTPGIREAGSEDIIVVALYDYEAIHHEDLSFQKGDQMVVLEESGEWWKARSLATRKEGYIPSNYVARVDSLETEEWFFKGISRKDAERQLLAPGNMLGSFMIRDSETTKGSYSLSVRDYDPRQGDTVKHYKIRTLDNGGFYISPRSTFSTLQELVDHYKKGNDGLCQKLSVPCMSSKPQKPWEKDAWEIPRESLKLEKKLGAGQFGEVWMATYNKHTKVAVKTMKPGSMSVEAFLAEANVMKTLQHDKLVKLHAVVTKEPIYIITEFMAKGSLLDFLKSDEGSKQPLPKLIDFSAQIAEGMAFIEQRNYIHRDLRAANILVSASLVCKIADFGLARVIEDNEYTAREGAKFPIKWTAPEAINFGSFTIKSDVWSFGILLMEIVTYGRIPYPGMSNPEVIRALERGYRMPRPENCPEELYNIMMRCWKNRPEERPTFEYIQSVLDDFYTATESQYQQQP

[10] = target: Jak2 (UniProt O60674); test: as above
Chain of Jak2 (O60674 whole entry, looked up): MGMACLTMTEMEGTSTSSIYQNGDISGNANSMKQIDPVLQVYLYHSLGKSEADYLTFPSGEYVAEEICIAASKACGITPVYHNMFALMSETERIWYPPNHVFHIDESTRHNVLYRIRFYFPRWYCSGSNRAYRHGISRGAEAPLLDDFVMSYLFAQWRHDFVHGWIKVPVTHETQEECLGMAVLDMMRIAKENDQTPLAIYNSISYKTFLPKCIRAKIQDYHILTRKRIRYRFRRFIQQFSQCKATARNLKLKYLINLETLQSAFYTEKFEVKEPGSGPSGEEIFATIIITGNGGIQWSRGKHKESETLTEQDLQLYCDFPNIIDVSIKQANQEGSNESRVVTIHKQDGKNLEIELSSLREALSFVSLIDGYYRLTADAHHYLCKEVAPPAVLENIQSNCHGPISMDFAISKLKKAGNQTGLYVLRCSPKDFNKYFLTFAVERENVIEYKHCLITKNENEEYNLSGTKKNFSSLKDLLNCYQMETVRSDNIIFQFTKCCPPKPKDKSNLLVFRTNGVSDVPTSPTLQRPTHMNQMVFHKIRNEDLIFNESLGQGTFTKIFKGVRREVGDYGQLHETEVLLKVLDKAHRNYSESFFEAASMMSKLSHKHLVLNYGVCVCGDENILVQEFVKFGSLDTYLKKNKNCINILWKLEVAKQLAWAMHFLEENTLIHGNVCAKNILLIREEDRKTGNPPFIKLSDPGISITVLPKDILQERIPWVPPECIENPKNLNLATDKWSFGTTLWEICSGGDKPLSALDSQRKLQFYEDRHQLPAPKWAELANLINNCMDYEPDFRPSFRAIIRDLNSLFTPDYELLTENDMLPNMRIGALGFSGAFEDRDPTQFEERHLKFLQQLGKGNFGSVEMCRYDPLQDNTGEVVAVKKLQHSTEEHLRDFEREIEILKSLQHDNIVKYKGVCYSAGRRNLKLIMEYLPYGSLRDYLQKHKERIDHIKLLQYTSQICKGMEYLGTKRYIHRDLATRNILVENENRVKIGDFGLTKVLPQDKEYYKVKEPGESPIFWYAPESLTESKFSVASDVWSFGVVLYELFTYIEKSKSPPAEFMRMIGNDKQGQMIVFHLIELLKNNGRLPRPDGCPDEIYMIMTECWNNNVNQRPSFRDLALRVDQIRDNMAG

[11] = target: MERTK (UniProt Q12866); test: as above
Chain of MERTK (Q12866 whole entry, looked up): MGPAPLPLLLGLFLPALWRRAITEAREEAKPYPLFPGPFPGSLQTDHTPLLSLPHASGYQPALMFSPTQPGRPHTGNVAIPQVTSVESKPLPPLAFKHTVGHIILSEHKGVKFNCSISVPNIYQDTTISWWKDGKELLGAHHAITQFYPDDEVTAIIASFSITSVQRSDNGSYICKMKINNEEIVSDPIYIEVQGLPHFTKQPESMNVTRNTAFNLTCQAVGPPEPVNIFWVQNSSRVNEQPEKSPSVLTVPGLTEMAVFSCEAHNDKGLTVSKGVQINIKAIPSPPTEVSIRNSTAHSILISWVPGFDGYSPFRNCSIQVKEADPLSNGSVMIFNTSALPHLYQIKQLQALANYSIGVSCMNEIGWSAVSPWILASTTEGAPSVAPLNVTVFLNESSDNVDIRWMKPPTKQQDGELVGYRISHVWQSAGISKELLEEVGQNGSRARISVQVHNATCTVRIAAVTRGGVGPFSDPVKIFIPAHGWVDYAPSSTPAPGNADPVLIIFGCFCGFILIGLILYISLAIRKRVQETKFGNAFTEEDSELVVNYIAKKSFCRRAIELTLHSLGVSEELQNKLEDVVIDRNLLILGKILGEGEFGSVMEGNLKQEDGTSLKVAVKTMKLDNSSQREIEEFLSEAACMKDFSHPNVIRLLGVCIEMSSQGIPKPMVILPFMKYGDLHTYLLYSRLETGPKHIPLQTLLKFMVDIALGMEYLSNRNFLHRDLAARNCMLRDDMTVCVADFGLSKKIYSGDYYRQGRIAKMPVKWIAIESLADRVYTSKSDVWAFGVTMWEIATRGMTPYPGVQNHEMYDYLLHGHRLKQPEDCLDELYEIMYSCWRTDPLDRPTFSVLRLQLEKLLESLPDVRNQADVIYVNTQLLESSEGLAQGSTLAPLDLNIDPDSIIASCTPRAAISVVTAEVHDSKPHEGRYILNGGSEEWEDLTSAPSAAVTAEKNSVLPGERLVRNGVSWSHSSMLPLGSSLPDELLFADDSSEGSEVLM

[12] = tested on: c-Abl (mouse); test: as above
[13] = tested on: c-Src; test: as above
[14] = target: Grb2 SH2 (UniProt P62993); test: SH2 binding enrichment of the phosphorylated peptide, bacterial display (enrichment ratio); higher = better substrate or ligand; peptides without Tyr show the background
Chain of Grb2 SH2 (P62993 whole entry, looked up): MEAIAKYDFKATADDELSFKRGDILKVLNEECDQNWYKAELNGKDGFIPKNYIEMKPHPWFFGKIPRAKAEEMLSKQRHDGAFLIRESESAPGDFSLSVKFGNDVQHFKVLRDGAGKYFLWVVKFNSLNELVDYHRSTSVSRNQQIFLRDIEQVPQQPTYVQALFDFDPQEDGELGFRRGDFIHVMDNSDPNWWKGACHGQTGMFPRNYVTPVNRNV

[15] = target: SHP2-C SH2; test: as above
[16] = target: c-Src SH2; test: as above
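Wherever SH2 binding enrichment of the phosphorylated peptide, bacterial display is given: peptide library displayed on the E. coli surface as eCPX fusions, selected cells deep-sequenced, score is each peptide's frequency after selection divided by its frequency in the input.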
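Wherever phosphorylation enrichment, bacterial display is given: 11-residue human phosphosite peptides and single-mutation variants displayed on the E. coli surface, counted by deep sequencing, each peptide's frequency after selection divided by its frequency in the unselected input library; frequency after pTyr selection over input frequency; kinase dosed for 20-30% of maximal phosphorylation in three min.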

Chain of EPHB1 (P54762 whole entry, looked up): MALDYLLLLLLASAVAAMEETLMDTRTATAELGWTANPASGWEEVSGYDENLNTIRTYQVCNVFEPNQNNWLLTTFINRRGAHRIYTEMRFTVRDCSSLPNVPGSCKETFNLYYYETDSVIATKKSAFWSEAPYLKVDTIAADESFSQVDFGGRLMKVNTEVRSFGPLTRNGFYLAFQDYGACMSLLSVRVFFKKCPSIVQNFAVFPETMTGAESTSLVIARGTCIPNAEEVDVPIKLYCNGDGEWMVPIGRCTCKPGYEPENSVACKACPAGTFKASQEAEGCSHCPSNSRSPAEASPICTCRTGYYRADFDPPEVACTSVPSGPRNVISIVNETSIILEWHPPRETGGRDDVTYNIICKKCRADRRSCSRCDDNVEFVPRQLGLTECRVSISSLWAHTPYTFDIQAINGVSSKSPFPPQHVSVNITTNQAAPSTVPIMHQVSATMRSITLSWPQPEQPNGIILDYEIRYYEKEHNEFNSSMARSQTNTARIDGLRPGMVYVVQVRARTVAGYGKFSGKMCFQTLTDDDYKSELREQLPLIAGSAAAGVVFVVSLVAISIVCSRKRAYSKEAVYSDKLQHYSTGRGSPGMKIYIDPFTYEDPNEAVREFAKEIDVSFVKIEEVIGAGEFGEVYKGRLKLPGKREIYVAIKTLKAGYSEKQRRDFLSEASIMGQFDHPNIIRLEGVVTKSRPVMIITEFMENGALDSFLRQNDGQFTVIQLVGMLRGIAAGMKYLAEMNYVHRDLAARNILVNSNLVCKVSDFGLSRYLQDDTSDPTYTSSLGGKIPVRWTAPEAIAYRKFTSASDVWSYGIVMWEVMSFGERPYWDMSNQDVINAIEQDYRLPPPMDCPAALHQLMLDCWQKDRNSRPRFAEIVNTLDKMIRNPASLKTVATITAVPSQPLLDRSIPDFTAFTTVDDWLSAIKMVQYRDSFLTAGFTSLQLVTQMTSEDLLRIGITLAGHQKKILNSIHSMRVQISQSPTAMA

Sequence | phosphorylation enrichment [1] | phosphorylation enrichment [2] | phosphorylation enrichment [3] | phosphorylation enrichment [4] | phosphorylation enrichment [5] | phosphorylation enrichment [6] | phosphorylation enrichment [7] | phosphorylation enrichment [8] | phosphorylation enrichment [9] | phosphorylation enrichment [10] | phosphorylation enrichment [11] | phosphorylation enrichment [12] | phosphorylation enrichment [13] | SH2 binding enrichment [14] | SH2 binding enrichment [15] | SH2 binding enrichment [16]
NTGGYYDLYGG [PTPN11_Y63_D61G] | 1.51 | 1.98 | 3.74 | 13.3 | 10.8 | 3.33 | 1.18 | 8.66 | 8.38 | 5.82 | 7.92 | 0.756 | 5.05 | 0.928 | 0.871 | 5.92
VVLVSYVPSSQ [SH2B1_Y624] | 0.784 | 0.557 | 0.454 | 0.506 | 0.703 | 0.388 | 0.874 | 0.452 | 0.433 | 0.751 | 0.424 | 0.614 | 0.336 | 1.51 | 1.4 | 0.95
HFGCVYHGTLL [MET_Y1093] | 1.8 | 1.21 | 0.991 | 1.04 | 1.19 | 0.967 | 1.67 | 1.08 | 0.9 | 1.28 | 0.637 | 1.33 | 4.11 | 0.98 | 0.754 | 0.524
IHHIDYYKETT [FGFR1_Y653_K656E] | 0.694 | 0.594 | 0.653 | 0.76 | 0.891 | 0.396 | 1.05 | 0.549 | 0.471 | 0.513 | 0.491 | 0.442 | 0.409 | 0.808 | 0.635 | 1.08
GNLQEYLTRHV [TGFBR2_Y336] | 0.794 | 0.474 | 0.564 | 0.516 | 0.584 | 0.462 | 0.828 | 0.455 | 0.465 | 0.581 | 0.368 | 0.667 | 0.363 | 0.744 | 0.659 | 0.451
RRIFSYRGHLW [VHL_Y112_H110Y_YF] | 0.834 | 0.47 | 0.541 | 0.731 | 0.619 | 0.536 | 0.897 | 0.763 | 0.712 | 0.587 | 0.6 | 1.1 | 0.905 | 1.07 | 0.495 | 0.498
EEQKKYYNAVK [SCN5A_Y1494_M1498V] | 0.651 | 0.368 | 0.433 | 0.425 | 0.486 | 0.393 | 0.789 | 0.429 | 0.496 | 0.625 | 0.426 | 0.574 | 0.548 | 1.06 | 0.878 | 0.584
ISRASYYRKGG [ALK_Y1282_Y1278S] | 0.588 | 0.427 | 0.428 | 0.409 | 0.532 | 0.473 | 0.701 | 0.511 | 0.496 | 0.51 | 0.576 | 0.569 | 0.509 | 0.655 | 0.426 | 0.362
NGQALYAACQT [XDH_Y1092_V1091L] | 0.775 | 9.24 | 9.92 | 0.554 | 0.562 | 6.91 | 0.916 | 3.2 | 4.99 | 0.687 | 6.34 | 2.26 | 3.35 | 0.782 | 0.787 | 0.456
HCEDGYPGGSD [CTNND1_Y221_Y217C] | 1.44 | 1.03 | 0.743 | 0.664 | 1.15 | 0.672 | 1.81 | 0.817 | 0.714 | 1.34 | 0.626 | 1.35 | 0.514 | 1.06 | 0.653 | 0.64
VLRRVYVDFEG [KMT2B_Y1707] | 0.842 | 0.424 | 0.518 | 0.478 | 0.613 | 0.403 | 0.909 | 0.472 | 0.502 | 0.774 | 0.435 | 0.629 | 0.602 | 1.08 | 0.884 | 1.41
CTTIHYNYMSN [TP53_Y234_C238S] | 0.793 | 0.503 | 0.594 | 0.499 | 0.629 | 0.664 | 0.844 | 0.396 | 0.434 | 0.756 | 0.502 | 0.501 | 0.399 | 0.934 | 0.873 | 1.65
KPGVNYFFQVS | 1.15 | 0.695 | 0.577 | 0.85 | 1.09 | 0.582 | 1.38 | 0.538 | 0.588 | 1.28 | 0.508 | 0.801 | 0.408 | 0.993 | 1.18 | 0.606
IIAVHYVLEES [RYR2_Y4559] | 1 | 0.565 | 0.628 | 0.557 | 0.626 | 0.501 | 2.04 | 0.457 | 0.516 | 0.963 | 0.484 | 0.676 | 0.488 | 1.41 | 1.28 | 1.09
VQDPAYLRDID [OPRK1_Y369] | 1.16 | 0.45 | 0.657 | 0.533 | 0.708 | 0.465 | 1.13 | 0.425 | 0.567 | 1.24 | 0.468 | 0.905 | 0.425 | 1.14 | 1.04 | 0.564
RMQLPYDSTWE [PDGFRB_Y589_P584R] | 1.23 | 0.76 | 0.704 | 0.779 | 0.963 | 0.434 | 1.33 | 0.851 | 0.764 | 1.17 | 0.447 | 0.913 | 0.996 | 0.445 | 0.747 | 0.91
AIGCEYSEINI [SIGLEC12_Y588_Y586C] | 1.94 | 1.24 | 0.797 | 3.95 | 2.99 | 5.32 | 1.27 | 1.79 | 2.42 | 0.924 | 0.492 | 0.928 | 2.47 | 0.603 | 0.362 | 0.631

Sequence | phosphorylation enrichment [1] | phosphorylation enrichment [2] | phosphorylation enrichment [3] | phosphorylation enrichment [4] | phosphorylation enrichment [5] | phosphorylation enrichment [6] | phosphorylation enrichment [7] | phosphorylation enrichment [8] | phosphorylation enrichment [9] | phosphorylation enrichment [10] | phosphorylation enrichment [11] | phosphorylation enrichment [12] | phosphorylation enrichment [13] | SH2 binding enrichment [14] | SH2 binding enrichment [15] | SH2 binding enrichment [16]
RSSNTYTLMDV [ALCAM_Y298_T301M] | 1.01 | 0.633 | 0.868 | 1.26 | 1.17 | 1.42 | 0.793 | 1.55 | 0.676 | 0.309 | 4.15 | 0.614 | 1.58 | 0.78 | 0.7 | 6.21
THLAPYSDELR [APOA1_Y190] | 0.722 | 0.51 | 0.582 | 0.46 | 0.594 | 0.442 | 0.968 | 0.51 | 0.481 | 0.688 | 0.467 | 0.521 | 0.434 | 0.723 | 0.909 | 0.437
ITNLLYHLVGW [GBA_Y412_V414L] | 1.09 | 2.74 | 1.04 | 6.54 | 5.47 | 3.17 | 0.866 | 2.56 | 4.8 | 1.47 | 8.16 | 0.703 | 2.99 | 1.72 | 1.84 | 1.49
GKVADYIPQLP [GLS_Y249_A254P] | 0.796 | 0.468 | 0.49 | 0.57 | 0.634 | 0.495 | 0.866 | 0.484 | 0.448 | 0.892 | 0.455 | 0.795 | 0.484 | 0.724 | 0.634 | 0.448
LSIWPYLQKID [MFSD8_Y63_M58L] | 1.16 | 0.929 | 0.759 | 0.584 | 0.85 | 0.577 | 1.37 | 0.501 | 0.566 | 1.43 | 0.6 | 0.6 | 0.686 | 1.23 | 1.1 | 0.797
GIFKDYFRFNF [PLA2G2D_Y85_S80G_YF] | 1.16 | 0.57 | 0.47 | 4.19 | 2.94 | 0.507 | 1.18 | 0.501 | 0.579 | 3.79 | 0.56 | 0.897 | 0.622 | 1.82 | 1.74 | 1.23
RMETEYGPSVT [MXRA5_Y2717] | 0.937 | 0.779 | 0.929 | 0.91 | 0.718 | 0.408 | 1.01 | 0.823 | 0.752 | 0.985 | 0.54 | 0.92 | 0.787 | 1.07 | 0.622 | 0.584
VIESSYTSADG [DHCR7_Y382_C380S] | 0.892 | 0.468 | 0.596 | 0.531 | 0.627 | 0.519 | 0.961 | 0.551 | 0.476 | 0.873 | 0.596 | 0.618 | 0.546 | 0.894 | 0.861 | 4.23
TLQVMYGCDVG [HLA-B_Y123_S121V] | 1.1 | 0.564 | 0.56 | 0.596 | 0.862 | 0.509 | 1.23 | 0.508 | 0.593 | 1.1 | 0.56 | 0.849 | 0.589 | 0.941 | 0.883 | 0.515
TVSRPYSFIEF [SEC22B_Y110] | 0.746 | 0.527 | 0.403 | 3.02 | 2.19 | 11.3 | 1.12 | 0.993 | 0.705 | 0.848 | 6.03 | 0.639 | 3.15 | 0.891 | 26.3 | 19.8
ARRMEYLASQK [FGFR2_Y616_G613R] | 0.461 | 0.947 | 0.558 | 0.372 | 0.437 | 0.293 | 0.557 | 0.367 | 0.333 | 0.367 | 0.402 | 0.286 | 0.382 | 1.09 | 0.464 | 0.469
YFCRWYRNQKS [EREG_Y144_R147Q] | 0.565 | 0.481 | 0.385 | 0.473 | 0.548 | 0.454 | 0.48 | 0.447 | 0.372 | 0.371 | 0.523 | 0.444 | 0.477 | 0.712 | 0.545 | 0.275
RPGSGYTNIMQ [PKLR_Y564_R569Q] | 0.775 | 0.61 | 0.484 | 0.763 | 0.517 | 0.466 | 0.834 | 0.469 | 0.548 | 0.463 | 0.524 | 0.549 | 0.597 | 2.13 | 1.76 | 2.99
ESPGLCGFLNV [BCR_Y910_Y910C] | 1.01 | 0.595 | 0.617 | 0.557 | 0.72 | 0.476 | 1.38 | 0.494 | 0.487 | 0.979 | 0.519 | 0.844 | 0.453 | 0.622 | 0.63 | 0.377
LFRFGYANTSE [SI_Y1233_C1229Y_YF] | 0.696 | 0.378 | 0.585 | 0.619 | 0.497 | 0.433 | 0.937 | 0.411 | 0.51 | 0.807 | 0.315 | 0.847 | 0.376 | 1.48 | 0.95 | 0.936
RKTAKYLLKGE [CDH5_Y82_N79T] | 0.71 | 0.915 | 0.54 | 1.04 | 0.704 | 0.878 | 0.644 | 0.598 | 0.672 | 0.628 | 0.832 | 1.1 | 0.535 | 0.861 | 0.709 | 0.461
